Data on one molecule can be found in PMC3493965 (The Journal of Biological Chemistry, 2012).

The target of this test is TaCDC48-L745W (W466F, W541Y, L745W) (T. acidophilum, UniProt O05209 1-745, W466F | W541Y | L745W). Put plainly: tryptophan fluorescence shift.
Chain of TaCDC48-L745W (W466F, W541Y, L745W) (O05209 whole entry W466F/W541Y/L745W): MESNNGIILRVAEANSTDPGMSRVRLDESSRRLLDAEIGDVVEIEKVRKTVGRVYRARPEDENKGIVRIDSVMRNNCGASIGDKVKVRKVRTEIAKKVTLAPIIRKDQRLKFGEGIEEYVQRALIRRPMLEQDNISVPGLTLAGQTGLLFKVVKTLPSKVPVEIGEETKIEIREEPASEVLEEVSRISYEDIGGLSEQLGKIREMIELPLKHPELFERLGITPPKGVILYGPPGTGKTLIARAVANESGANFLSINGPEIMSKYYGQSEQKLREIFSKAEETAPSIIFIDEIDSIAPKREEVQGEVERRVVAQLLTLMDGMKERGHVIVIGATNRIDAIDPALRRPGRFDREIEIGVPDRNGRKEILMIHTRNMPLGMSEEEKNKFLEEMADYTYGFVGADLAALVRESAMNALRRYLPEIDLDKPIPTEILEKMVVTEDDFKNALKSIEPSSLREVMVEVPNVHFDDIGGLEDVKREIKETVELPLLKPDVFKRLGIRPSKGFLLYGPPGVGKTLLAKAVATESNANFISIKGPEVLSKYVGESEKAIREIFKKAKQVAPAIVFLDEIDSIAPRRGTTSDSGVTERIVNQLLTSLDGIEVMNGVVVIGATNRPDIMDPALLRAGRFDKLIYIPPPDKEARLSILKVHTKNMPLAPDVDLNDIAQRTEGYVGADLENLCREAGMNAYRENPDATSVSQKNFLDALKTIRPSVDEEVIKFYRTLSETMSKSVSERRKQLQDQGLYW

B1: Thermoplasma acidophilum 20S proteasome core particle, recombinant (complex, T. acidophilum)
chain 1: MQQGQMAYDRAITVFSPDGRLFQVEYAREAVKKGSTALGMKFANGVLLISDKKVRSRLIEQNSIEKIQLIDDYVAAVTSGLVADARVLVDFARISAQQEKVTYGSLVNIENLVKRVADQMQQYTQYGGVRPYGVSLIFAGIDQIGPRLFDCDPAGTINEYKATAIGSGKDAVVSFLEREYKENLPEKEAVTLGIKALKSSLEEGEELKAPEIASITVGNKYRIYDQEEVKKFL
chain 2: TTTVGITLKDAVIMATERRVTMENFIMHKNGKKLFQIDTYTGMTIAGLVGDAQVLVRYMKAELELYRLQRRVNMPIEAVATLLSNMLNQVKYMPYMVQLLVGGIDTAPHVFSIDAAGGSVEDIYASTGSGSPFVYGVLESQYSEKMTVDEGVDLVIRAISAAKQRDSASGGMIDVAVITRKDGYVQLPTDQIESRIRKLGLIL
In the case of B1, the binding result is listed as “binds”.
